Columns and labels:
[1] = target: T1, Cdc13 (Saccharomyces cerevisiae, UniProt P32797 1-924); experiment: filter binding
T1 sequence: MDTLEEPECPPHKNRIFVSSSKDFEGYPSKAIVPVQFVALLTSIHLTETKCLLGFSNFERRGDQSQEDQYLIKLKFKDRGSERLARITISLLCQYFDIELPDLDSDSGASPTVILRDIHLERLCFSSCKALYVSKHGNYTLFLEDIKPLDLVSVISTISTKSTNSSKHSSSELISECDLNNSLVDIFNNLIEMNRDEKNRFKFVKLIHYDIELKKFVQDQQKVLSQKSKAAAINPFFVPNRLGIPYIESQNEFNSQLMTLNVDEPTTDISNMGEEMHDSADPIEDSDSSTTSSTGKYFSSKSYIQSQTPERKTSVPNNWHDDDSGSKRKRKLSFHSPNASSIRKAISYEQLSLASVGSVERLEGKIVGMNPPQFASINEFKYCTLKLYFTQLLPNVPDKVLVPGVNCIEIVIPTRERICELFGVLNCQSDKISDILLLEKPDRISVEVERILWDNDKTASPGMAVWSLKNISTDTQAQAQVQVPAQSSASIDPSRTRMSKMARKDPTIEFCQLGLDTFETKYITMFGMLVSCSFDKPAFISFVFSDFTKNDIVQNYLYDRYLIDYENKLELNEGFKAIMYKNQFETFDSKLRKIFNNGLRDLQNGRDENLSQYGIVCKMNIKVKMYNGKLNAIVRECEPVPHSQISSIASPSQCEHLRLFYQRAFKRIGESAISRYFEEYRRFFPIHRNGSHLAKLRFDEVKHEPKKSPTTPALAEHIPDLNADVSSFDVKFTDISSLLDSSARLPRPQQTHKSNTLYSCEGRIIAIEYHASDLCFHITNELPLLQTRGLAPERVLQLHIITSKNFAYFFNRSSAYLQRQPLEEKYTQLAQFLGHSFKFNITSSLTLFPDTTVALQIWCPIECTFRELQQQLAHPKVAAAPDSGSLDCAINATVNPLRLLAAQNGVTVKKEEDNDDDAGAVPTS

[2] = target: T2, Cdc13-MOB-DBD (Saccharomyces cerevisiae, UniProt P32797 344-694); experiment: filter binding
T2 sequence: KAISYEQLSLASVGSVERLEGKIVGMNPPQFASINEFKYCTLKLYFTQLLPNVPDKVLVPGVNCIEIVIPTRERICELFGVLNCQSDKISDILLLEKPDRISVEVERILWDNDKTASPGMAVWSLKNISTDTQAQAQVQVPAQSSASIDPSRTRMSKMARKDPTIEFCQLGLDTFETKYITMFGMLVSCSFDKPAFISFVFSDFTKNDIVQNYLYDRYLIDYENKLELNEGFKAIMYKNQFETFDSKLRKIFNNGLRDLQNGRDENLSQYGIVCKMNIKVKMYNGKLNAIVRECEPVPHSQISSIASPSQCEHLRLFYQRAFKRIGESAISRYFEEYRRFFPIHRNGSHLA

## GTGTGGGTGTG (ssDNA) [Tel11]
[1]
  Kd: 0.41 ± 0.04 nM
[2]
  Kd: 0.18 ± 0.03 nM
